The source of these data is PMC10602602, “The apiosyltransferase celery UGT94AX1 catalyzes the biosynthesis of the flavone glycoside apiin” (Plant Physiology, 2023).

Broadly, the Km is the concentration of substrate that gives half-maximal velocity. By kcat is commonly meant the maximal rate divided by the concentration of active sites. For orientation: kcat/Km means the second-order rate constant that governs catalysis at low substrate concentration.

Substrate in data set [1]: O=c1ccn([C@@H]2O[C@H](COP(=O)(O)OP(=O)(O)O[C@H]3OC[C@](O)(CO)[C@H]3O)[C@@H](O)[C@H]2O)c(=O)[nH]1
In words: reversed-phase HPLC glycosyltransferase assay, Michaelis-Menten nonlinear fit. It is filed as biochemical, Apium graveolens. Conditions: acceptor apigenin 7-O-glucoside, 200 mM Tris-HCl, 50 mM NaCl, pH 7.0, 23 °C. The text has this: (§1) reversed-phase HPLC glycosyltransferase assay, Michaelis-Menten nonlinear fit on AgApiT (UGT94AX1)

Substrate in data set [2]: O=c1cc(-c2ccc(O)cc2)oc2cc(O[C@@H]3O[C@H](CO)[C@@H](O)[C@H](O)[C@H]3O)cc(O)c12
The data set is described as above. Type of data set: biochemical, Apium graveolens. Conditions: donor UDP-Api, 200 mM Tris-HCl, 50 mM NaCl, pH 7.0, 23 °C.
From the text: as §1

B1: AgApiT (UGT94AX1) (Apium graveolens) (protein)
chain: MGSENAKTRILMFPYLAYGHISPFVELAKQLTKRNFHIYLCSTPINLASVKKRADEDDNIQLLEFHLPSSPELPPRYHCSTGLPAELNPVLLRVFENAGPVFVDILKDIKPDLVIYDFMPSWPAQVALSLNIQVVYFSIFPVPMCCLPLHDSKRAGEKFPYQNVVIPQSPNRFALMASRNLLNCFEKTCKFALVKGLREVEGKYIDLLSDLADKDIIAVGPLVHVSMEKEDDKTKSILKWLDSKEKSSVVFVCFGSESYLSAEETIEMANALETTKCNFIWAMKFPQEKKDSVQLPDGFVERVGELGMILDGWVPQTMILGHPSTGVFLSHCGWSSVNESMKFGVPIIGMPMRYDLALIAKLVVEIGVGMEIVKNNQGKFDREGIVNVLRKVLEDGSEVKAKATELSLKINEKGEEDLDKAAEELMQICRNKKEIQG
notes: full ORF, codon-optimized synthetic gene, pCold ProS2, E. coli BL21(DE3); His/ProS2 tag cut off with HRV3C protease; 49 kDa
Regarding B1, in data set [1], the Km is listed as 8.6 ± 0.6 µM, the kcat stood at 0.00065 ± 1e-05 s⁻¹ and the kcat/Km stood at 76 ± 6 M⁻¹ s⁻¹. Further, in data set [2], the Km is reported as 15 ± 3 µM, the kcat came to 0.00088 ± 5e-05 s⁻¹ and the kcat/Km came out at 58 ± 15 M⁻¹ s⁻¹.

B2: AgApiT (UGT94AX1) (Apium graveolens; I139V) (protein)
chain: MGSENAKTRILMFPYLAYGHISPFVELAKQLTKRNFHIYLCSTPINLASVKKRADEDDNIQLLEFHLPSSPELPPRYHCSTGLPAELNPVLLRVFENAGPVFVDILKDIKPDLVIYDFMPSWPAQVALSLNIQVVYFSVFPVPMCCLPLHDSKRAGEKFPYQNVVIPQSPNRFALMASRNLLNCFEKTCKFALVKGLREVEGKYIDLLSDLADKDIIAVGPLVHVSMEKEDDKTKSILKWLDSKEKSSVVFVCFGSESYLSAEETIEMANALETTKCNFIWAMKFPQEKKDSVQLPDGFVERVGELGMILDGWVPQTMILGHPSTGVFLSHCGWSSVNESMKFGVPIIGMPMRYDLALIAKLVVEIGVGMEIVKNNQGKFDREGIVNVLRKVLEDGSEVKAKATELSLKINEKGEEDLDKAAEELMQICRNKKEIQG
notes: as for B1
Turning to B2, in data set [1], the Km is given as 17 ± 1 µM, the kcat was 0.00047 ± 1e-05 s⁻¹ and the kcat/Km is 28 ± 3 M⁻¹ s⁻¹. Moreover, in data set [2], the Km came out at 17 ± 1 µM, the kcat was determined as 0.00083 ± 7e-05 s⁻¹ and the kcat/Km was determined as 50 ± 18 M⁻¹ s⁻¹.

B3: AgApiT (UGT94AX1) (Apium graveolens; L356Q) (protein)
chain: MGSENAKTRILMFPYLAYGHISPFVELAKQLTKRNFHIYLCSTPINLASVKKRADEDDNIQLLEFHLPSSPELPPRYHCSTGLPAELNPVLLRVFENAGPVFVDILKDIKPDLVIYDFMPSWPAQVALSLNIQVVYFSIFPVPMCCLPLHDSKRAGEKFPYQNVVIPQSPNRFALMASRNLLNCFEKTCKFALVKGLREVEGKYIDLLSDLADKDIIAVGPLVHVSMEKEDDKTKSILKWLDSKEKSSVVFVCFGSESYLSAEETIEMANALETTKCNFIWAMKFPQEKKDSVQLPDGFVERVGELGMILDGWVPQTMILGHPSTGVFLSHCGWSSVNESMKFGVPIIGMPMRYDQALIAKLVVEIGVGMEIVKNNQGKFDREGIVNVLRKVLEDGSEVKAKATELSLKINEKGEEDLDKAAEELMQICRNKKEIQG
notes: as for B1
Take B3: in data set [1], the Km is given as 390 ± 60 µM, the kcat is 0.00014 ± 1e-05 s⁻¹ and the kcat/Km amounted to 0.36 ± 0.08 M⁻¹ s⁻¹. For the same protein, in data set [2], the Km was found to be 52 ± 9 µM, the catalytic constant (kcat) amounted to 0.00021 ± 2e-05 s⁻¹ and the kcat/Km worked out at 2.1 ± 0.3 M⁻¹ s⁻¹.
